Results published in article PMC6615629, “Hsp70-nucleotide exchange factor (NEF) Fes1 has non-NEF roles in degradation of gluconeogenic enzymes and cell wall integrity” (PLoS Genetics, 2019).

How the values were obtained:
Assay in all cases: pull-down; His6-Fbp1 (wild type or mutant) pulled down on Talon metal affinity resin; reactions with two or all three proteins; 6 μg each of His6-Fbp1 (1.6 μM), Hsp70 (0.9 μM) and GST-Fes1 (1.09 μM), with or without ATP, ADP or AMP (2.5 mM); 50 mM Tris-HCl pH 7.5, 150 mM NaCl, 2% glycerol, 5 mM MgCl2; 30 min at 4°C; washed with 5 mM imidazole, eluted with 250 mM imidazole; stained SDS-PAGE gels, bands quantified …
Details in all cases: both partners purified
His6-Fbp1^P2A,S12A,T13A = target: T1, His6-Fbp1^P2A,S12A,T13A (yeast (S. cerevisiae), UniProt P09201 1-348, P2A | S12A | T13A)
T1 construct: Fbp1, yeast gluconeogenic enzyme, P2A,S12A,T13A; the initiator methionine is counted as residue 1; source: E. coli expression, purified; not shown: His6, N-terminal, kept
T1 sequence (looked up): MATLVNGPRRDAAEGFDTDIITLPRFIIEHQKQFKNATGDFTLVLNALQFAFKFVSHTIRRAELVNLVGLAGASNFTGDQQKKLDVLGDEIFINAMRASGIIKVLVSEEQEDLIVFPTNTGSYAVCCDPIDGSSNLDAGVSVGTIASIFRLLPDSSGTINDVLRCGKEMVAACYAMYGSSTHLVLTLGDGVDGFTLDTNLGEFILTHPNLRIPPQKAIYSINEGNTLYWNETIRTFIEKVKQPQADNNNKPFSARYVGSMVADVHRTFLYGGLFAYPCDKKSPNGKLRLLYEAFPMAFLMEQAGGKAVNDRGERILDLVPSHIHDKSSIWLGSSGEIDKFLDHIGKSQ

His6-Fbp1Δ2–12 = target: T2, His6-Fbp1Δ2–12 (yeast (S. cerevisiae), UniProt P09201 1-348, Δ2–12)
T2 construct: Fbp1, yeast gluconeogenic enzyme, lacking amino acid residues 2–12; the initiator methionine is counted as residue 1; source: E. coli expression, purified; not shown: His6, N-terminal, kept
T2 sequence (looked up): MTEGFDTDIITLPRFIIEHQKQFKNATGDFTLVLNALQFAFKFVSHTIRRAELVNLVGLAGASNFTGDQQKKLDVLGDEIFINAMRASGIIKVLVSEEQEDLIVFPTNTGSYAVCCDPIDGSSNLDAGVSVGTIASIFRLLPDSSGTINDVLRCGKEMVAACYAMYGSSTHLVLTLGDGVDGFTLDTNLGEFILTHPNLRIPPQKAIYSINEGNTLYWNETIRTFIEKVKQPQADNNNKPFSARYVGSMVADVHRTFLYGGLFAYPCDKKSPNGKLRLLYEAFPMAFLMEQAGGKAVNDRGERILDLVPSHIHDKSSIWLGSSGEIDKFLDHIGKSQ

His6-Fbp1 P2A = target: T3, His6-Fbp1 P2A (yeast (S. cerevisiae), UniProt P09201 1-348, P2A)
T3 construct: Fbp1, yeast gluconeogenic enzyme, P2A; the initiator methionine is counted as residue 1; source: E. coli expression, purified; not shown: His6, N-terminal, kept
T3 sequence (looked up): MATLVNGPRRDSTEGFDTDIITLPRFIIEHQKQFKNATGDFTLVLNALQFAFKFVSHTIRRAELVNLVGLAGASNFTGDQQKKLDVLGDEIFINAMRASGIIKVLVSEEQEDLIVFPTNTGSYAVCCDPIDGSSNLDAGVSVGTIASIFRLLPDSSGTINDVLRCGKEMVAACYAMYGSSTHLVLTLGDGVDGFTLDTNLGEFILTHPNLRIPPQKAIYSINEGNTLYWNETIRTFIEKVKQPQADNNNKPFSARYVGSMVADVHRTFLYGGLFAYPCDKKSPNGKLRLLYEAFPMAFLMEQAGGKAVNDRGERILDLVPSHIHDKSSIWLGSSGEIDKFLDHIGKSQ

His6-Fbp1ΔP2 = target: T4, His6-Fbp1ΔP2 (yeast (S. cerevisiae), UniProt P09201 1-348, ΔP2)
T4 construct: Fbp1, yeast gluconeogenic enzyme, proline 2 deleted; the initiator methionine is counted as residue 1; also called Fbp1P2Δ; source: E. coli expression, purified; not shown: His6, N-terminal, kept
T4 sequence (looked up): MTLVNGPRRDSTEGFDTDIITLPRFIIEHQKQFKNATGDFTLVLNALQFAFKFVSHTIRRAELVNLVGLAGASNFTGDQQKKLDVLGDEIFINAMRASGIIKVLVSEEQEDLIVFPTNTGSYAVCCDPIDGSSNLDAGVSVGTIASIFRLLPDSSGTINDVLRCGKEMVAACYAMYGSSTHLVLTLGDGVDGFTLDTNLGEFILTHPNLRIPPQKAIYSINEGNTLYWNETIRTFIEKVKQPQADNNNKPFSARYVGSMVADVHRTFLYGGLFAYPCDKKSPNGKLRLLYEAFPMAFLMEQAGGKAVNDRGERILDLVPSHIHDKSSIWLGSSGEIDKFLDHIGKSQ

binding result (His6-Fbp1^P2A,S12A,T13A): binds | binding result (His6-Fbp1Δ2–12): binds | binding result (His6-Fbp1 P2A): binds | binding result (His6-Fbp1ΔP2): binds
B1: GST-Fes1 (natural protein, yeast (S. cerevisiae), UniProt P38260 1-290, looked up)
chain: MEKLLQWSIANSQGDKEAMARAGQPDPKLLQQLFGGGGPDDPTLMKESMAVIMNPEVDLETKLVAFDNFEMLIENLDNANNIENLKLWEPLLDVLVQTKDEELRAAALSIIGTAVQNNLDSQNNFMKYDNGLRSLIEIASDKTKPLDVRTKAFYALSNLIRNHKDISEKFFKLNGLDCIAPVLSDNTAKPKLKMRAIALLTAYLSSVKIDENIISVLRKDGVIESTIECLSDESNLNIIDRVLSFLSHLISSGIKFNEQELHKLNEGYKHIEPLKDRLNEDDYLAVKYVL
notes: Fes1, yeast Hsp70 nucleotide exchange factor; also called wild type GST-Fes1; source: E. coli expression, purified as described [15]; not shown: GST, N-terminal, kept
